Data: patent US6528098B2, “Preparation of a therapeutic composition” (Advanced Viral Research Corp., priority 1996, dated 2003)
No end group written: not given here.

How the values were obtained:
Type in all cases: physicochemical
pronase from S. griseus = experiment: Treatment of Product R with pronase, SDS-PAGE on a 16% gel; set-up: key: “−” represents no substantial alteration of the stainable bands; “+” represents substantial alteration of the stainable bands; details: 2 mg/ml pronase, 40° C., 75 minutes
Experimental: (§1) The biochemical properties of the peptides: Some biochemical properties of the silverstainable peptide components of Product R are analyzed using various catabolic enzymes, as described below:
The treatment with pronase (Boehringer Mannlheim. USA): Pronase is a non-specific protease, acts on both native and denatured proteins. It breaks down virtually all proteins into their individual amino acids. The preparation contains various types of endo-peptidases such as srine and metalloproteases, exo-peptidases such as carboypepsidases, neutral protease and neutral and alkaline phosphatases. A Product R sample is incubated in a reaction buffer containing 100 mM Tris-HCl, pH 7.4; 10 mM CaCl2; 0.1% SDS and 2 mg/ml of pronase from S. griseus at 40° C. for 75 minutes and then subject to SDS-PAGE on a 16% gel. All silver stained components disappear after such treatment of pronase.
(§2) A summary of the above described treatments by catabolic enzymes is provided in the following TABLE III, and the results of the treatment are shown in FIG. 5, wherein “−” represents no substantial alteration of the stainable bands and “+” represents substantial alteration of the stainable bands.

proteinase K = molecular target: T1, proteinase K (Parengyodontium album, UniProt P06873); experiment: Treatment of Product R with proteinase K, SDS-PAGE on a 16% gel, silver stain; set-up: key to Sensitivity of the Peptide Components of Product R (SDS-PAGE): Proteinase K (100 μg/ml) / Sensitivity of the Peptide Components of Product R (SDS-PAGE): Proteinase K (800 μg/ml): “−” represents no substantial alteration of the stainable bands; “+” represents substantial alteration of the stainable bands; details: for Sensitivity of the Peptide Components of Product R (SDS-PAGE): Proteinase K (800 μg/ml) / change of silver stained bands after proteinase K treatment: 800 μg/ml proteinase K, one hour
T1 construct: purchased ICN Biochemicals
T1 sequence (P06873 106-384): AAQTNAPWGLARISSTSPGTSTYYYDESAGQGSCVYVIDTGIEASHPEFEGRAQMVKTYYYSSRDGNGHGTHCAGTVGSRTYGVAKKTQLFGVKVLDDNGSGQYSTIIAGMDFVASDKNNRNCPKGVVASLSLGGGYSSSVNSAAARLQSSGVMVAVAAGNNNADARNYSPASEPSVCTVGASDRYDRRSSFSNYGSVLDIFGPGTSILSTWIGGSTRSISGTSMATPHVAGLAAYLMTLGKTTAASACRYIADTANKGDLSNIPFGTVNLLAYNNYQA
Experimental: as §1
The treatment with proteinase K (ICN Biochemicals): Proteinase K is a non-specific broad spectrum protease that cleaves peptide bonds at the C-terminal of aliphatic, aromatic and hydrophobic amino acids. It may cleave all serum peptides completely at 50 μg/ml within one hour. […]
as §2

[1] = molecular target: T2, recombinant N-glycosidase F (Elizabethkingia miricola, UniProt P21163); experiment: Treatment of Product R with N-glycosidase F, SDS-PAGE on a 16% gel; set-up: key: “−” represents no substantial alteration of the stainable bands; “+” represents substantial alteration of the stainable bands; details: 37° C., 4 hours
T2 construct: purchased Boehringer Mannheim, USA
T2 sequence (P21163 41-354): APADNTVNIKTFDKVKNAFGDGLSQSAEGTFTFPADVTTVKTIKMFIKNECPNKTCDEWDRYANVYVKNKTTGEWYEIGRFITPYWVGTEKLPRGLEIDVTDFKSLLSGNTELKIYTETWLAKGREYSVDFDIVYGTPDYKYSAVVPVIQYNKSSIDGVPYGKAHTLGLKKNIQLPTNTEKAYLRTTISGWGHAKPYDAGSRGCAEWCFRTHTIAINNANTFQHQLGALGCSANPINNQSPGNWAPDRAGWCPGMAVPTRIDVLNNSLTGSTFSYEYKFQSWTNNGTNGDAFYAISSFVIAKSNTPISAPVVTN
Experimental: as §1
The treatment with N-glycosidase F (Boehringer Mannheim, USA): N-glycosidase F cleaves all types of asparagine bound N-glycans provided that the amino group and the carboxyl group are present in a peptide linkage and the oligosaccharide has the minimum length of the chitobiose core unit. A Product R sample is incubated in a reaction buffer containing 0.4X Dulbecco's PBS (where 1X PBS contains 1.47 mM KH2 PO4, 2.67 mM KCl, 138 mM NaCl and 8.1 mM Na2 PO4 7H2O), 0.1% SDS, 0.5% NP40 and 50 units/mil of recombinant N-glycosidase F at 37° C. for 4 hours and subject to SDS-PAGE on a 16% gel. […] The resistance to N-glycosidase F indicates the lack of asparagine bound N-glycan, which is commonly observed in glycoproteins.
as §2

trypsin = molecular target: T3, trypsin (Bos taurus, UniProt P00760); experiment: Treatment of Product R with trypsin, SDS-PAGE on a 16% gel; set-up: key: “−” represents no substantial alteration of the stainable bands; “+” represents substantial alteration of the stainable bands; details: 250 μg/ml trypsin, 25° C., 19 hours
T3 construct: purchased Boehringer Mannheim USA
T3 sequence (P00760 24-246): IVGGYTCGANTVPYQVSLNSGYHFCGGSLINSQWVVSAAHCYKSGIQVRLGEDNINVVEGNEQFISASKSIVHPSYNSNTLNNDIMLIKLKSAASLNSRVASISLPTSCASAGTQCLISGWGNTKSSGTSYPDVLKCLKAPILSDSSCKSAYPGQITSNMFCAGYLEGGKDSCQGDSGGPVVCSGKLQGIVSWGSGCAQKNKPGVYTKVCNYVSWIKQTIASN
Experimental: as §1
The treatment with trypsin (Boehringer Mannheim USA): Trypsin is a serine protease, which specifically cleaves peptide bonds of lysine and arginine at the C-terminal at pH 7.5-9.0. A Product R sample is incubated in a reaction buffer having 100 mM Tris-HCl, pH 8.0, 0.1% SDS and 250 μg/ml of sequencing grade trypsin at 25° C. for 19 hours and then subject to SDS-PAGE on a 16% gel. While serum proteins will be broken down to peptides smaller than 4.3 KDa under such reaction conditions, none of the silver stained components of Product R are affected by trypsin.
as §2

Sequence: KVLPVPQKAVPYPQRDMPIQAFLLYQEPVLG [Peptide-A, 31-amino-acid long peptide derived from bovine beta-casein, constituent of Product R]
- Sensitivity of the Peptide Components of Product R (SDS-PAGE): Pronase (2 mg/ml) (pronase from S. griseus): +
- Sensitivity of the Peptide Components of Product R (SDS-PAGE): Proteinase K (800 μg/ml) (proteinase K): +
- change of silver stained bands after proteinase K treatment (proteinase K): disappears
- Sensitivity of the Peptide Components of Product R (SDS-PAGE): N-glycosidase F (50 units/ml) [1]: −
- Sensitivity of the Peptide Components of Product R (SDS-PAGE): Trypsin (250 μg/ml) (trypsin): −

Sequence: GEIPDAGGRIVDYYVGFSDSV (not fully specified (residue 18)) [Peptide-B, 21-amino acid peptide linked at serine 18 through a diphosphodiester group to the 3′-end of an adenylyl (3′-5′) adenosine moiety]
- Sensitivity of the Peptide Components of Product R (SDS-PAGE): Pronase (2 mg/ml) (pronase from S. griseus): +
- Sensitivity of the Peptide Components of Product R (SDS-PAGE): Proteinase K (100 μg/ml) (proteinase K; 100 μg/ml proteinase K, 40° C., 30 minutes): −
- Sensitivity of the Peptide Components of Product R (SDS-PAGE): Proteinase K (800 μg/ml) (proteinase K): −
- change of silver stained bands after proteinase K treatment (proteinase K): no obvious change
- Sensitivity of the Peptide Components of Product R (SDS-PAGE): N-glycosidase F (50 units/ml) [1]: −
- Sensitivity of the Peptide Components of Product R (SDS-PAGE): Trypsin (250 μg/ml) (trypsin): −
